Assay results published in patent US20240287172A1 (SCIRHOM, published 2024).

T1: hiR2-FL-T519A-T7 (human, UniProt Q6PJF5 1-856)
T1 sequence: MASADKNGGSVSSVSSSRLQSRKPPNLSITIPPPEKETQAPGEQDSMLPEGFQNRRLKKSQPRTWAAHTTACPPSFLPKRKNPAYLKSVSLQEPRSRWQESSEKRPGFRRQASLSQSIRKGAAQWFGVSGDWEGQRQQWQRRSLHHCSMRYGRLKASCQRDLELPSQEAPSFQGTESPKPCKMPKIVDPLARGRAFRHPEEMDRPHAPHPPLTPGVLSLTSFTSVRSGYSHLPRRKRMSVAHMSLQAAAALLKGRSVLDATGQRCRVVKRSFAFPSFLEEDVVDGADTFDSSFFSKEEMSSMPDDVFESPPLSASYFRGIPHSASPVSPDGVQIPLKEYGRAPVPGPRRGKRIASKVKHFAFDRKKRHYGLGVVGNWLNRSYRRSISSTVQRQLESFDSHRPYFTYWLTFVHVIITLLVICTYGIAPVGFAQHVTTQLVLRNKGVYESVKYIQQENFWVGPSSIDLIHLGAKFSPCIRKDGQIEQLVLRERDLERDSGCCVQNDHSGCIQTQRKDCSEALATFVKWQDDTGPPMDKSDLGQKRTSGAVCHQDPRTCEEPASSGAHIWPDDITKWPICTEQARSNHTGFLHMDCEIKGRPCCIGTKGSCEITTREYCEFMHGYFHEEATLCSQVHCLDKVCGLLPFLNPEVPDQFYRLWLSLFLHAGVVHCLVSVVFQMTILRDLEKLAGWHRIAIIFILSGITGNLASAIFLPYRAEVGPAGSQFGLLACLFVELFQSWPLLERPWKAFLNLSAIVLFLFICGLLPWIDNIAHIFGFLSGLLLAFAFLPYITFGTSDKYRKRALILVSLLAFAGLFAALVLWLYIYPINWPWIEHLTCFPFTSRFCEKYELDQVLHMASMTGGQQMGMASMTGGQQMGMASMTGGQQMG

T2: hiR2-FL-D592A-T7 (human, UniProt Q6PJF5 1-856)
T2 sequence: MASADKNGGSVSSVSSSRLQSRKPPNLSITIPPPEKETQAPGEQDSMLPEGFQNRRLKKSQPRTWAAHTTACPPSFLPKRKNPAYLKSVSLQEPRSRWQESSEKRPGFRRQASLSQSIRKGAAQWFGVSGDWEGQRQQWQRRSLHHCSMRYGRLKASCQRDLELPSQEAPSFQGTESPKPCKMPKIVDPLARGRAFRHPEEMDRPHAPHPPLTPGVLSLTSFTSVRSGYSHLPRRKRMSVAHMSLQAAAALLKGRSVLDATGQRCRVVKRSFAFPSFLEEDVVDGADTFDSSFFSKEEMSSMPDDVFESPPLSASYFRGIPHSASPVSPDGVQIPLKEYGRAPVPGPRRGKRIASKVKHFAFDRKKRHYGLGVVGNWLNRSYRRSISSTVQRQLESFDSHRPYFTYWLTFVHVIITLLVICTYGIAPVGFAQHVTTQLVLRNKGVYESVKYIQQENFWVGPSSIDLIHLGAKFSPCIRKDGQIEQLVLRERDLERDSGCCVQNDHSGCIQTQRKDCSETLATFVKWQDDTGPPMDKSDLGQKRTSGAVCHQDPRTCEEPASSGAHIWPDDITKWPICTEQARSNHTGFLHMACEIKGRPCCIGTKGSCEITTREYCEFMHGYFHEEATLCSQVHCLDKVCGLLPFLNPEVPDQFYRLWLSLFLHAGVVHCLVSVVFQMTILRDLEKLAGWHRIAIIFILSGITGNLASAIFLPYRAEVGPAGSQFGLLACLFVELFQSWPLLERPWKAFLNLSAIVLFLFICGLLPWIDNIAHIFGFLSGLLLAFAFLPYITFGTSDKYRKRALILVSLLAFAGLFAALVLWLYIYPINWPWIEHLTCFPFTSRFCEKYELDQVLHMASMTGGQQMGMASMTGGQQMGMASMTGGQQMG


Legend:
hiR2-FL-T519A-T7 = target: T1, hiR2-FL-T519A-T7; test: FACS on MEF-DKO cells expressing the variant, 3 µg/ml antibody
Method in brief: (§1)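 Primary stain: antibody 3 μg/ml, 1 h on ice; controls buffer alone. Secondary: PE anti-mouse IgG F(ab′)2 1:100, 1 h on ice, light-protected. Washes at 4° C; read by flow cytometry.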

hiR2-FL-D592A-T7 = target: T2, hiR2-FL-D592A-T7; test: as above
Method in brief: as §1

Row | Binder | loss of binding vs wild type (hiR2-FL-T519A-T7) [%] | loss of binding vs wild type (hiR2-FL-D592A-T7) [%]
1 | antibody 48 (antibody, V domains shown, mouse IgG, kappa light chain; also called clone #48; purified antibody 48) VH: QVQLQQSGTELVRPGTSVKVSCKASGYAFTNYLIEWVKQRPGQGLEWIGVINPGSGFTKYNEKFKGKATLTADKSSSTVYMHLSSLTSEDSAVYFCARGLYRAMDYWGQGTSVTVSS VL: DIQMTQSPASQSASLGESVTITCLASQTIATWLAWYQQKPGKSPQLLIYGATTLADGVPSRFSGGGSGTKFSFKISSLQAEDFVSYYCQQLYSTPYTFGGGTKLEIK | ≥ 60 | ≥ 60
2 | antibody 50 (antibody, V domains shown, mouse IgG, kappa light chain; also called clone #50; purified antibody 50) VH: QVQLQQSGAELVRPGASVKVSCKASGYAFSNYLIEWVKQRPGQGLEWIGVINPGSGFTKYNEKFKGKATLTADKSSSTAYMQLSSLTSEDSAVYFCARGLYRAMDYWGQGTSVTVSS VL: DIQMTQSPASQSASLGESVTITCLASQTIGTWLAWYQQKPGKSPQLLIYAAASLADGVPSRFSGGGSGTKFSFKISSLQAEDFVNYYCQQIYSTPYTFGGGTKLEIK | ≥ 60 | ≥ 60
